# In the supplement of paper PMC11246515:
# ± gives the standard deviation of the averaged measurements.
# Test: total protein half-life in vivo (active degradation + dilution); higher = more stable protein
# [1] = E. coli NCM3722 delta-clpP delta-lon delta-hslV, growth: N-lim chemostat, doubling time 6 h
# [2] = E. coli NCM3722 delta-clpP, growth: N-lim chemostat, doubling time 6 h
# [3] = E. coli NCM3722 delta-hslV, growth: N-lim chemostat, doubling time 6 h
# [4] = E. coli NCM3722 delta-lon, growth: N-lim chemostat, doubling time 6 h
# [5] = E. coli NCM3722 delta-smpB, growth: N-lim chemostat, doubling time 6 h
# [6] = wild type E. coli NCM3722, growth: C-lim chemostat, doubling time 3 h
# [7] = wild type E. coli NCM3722, growth: C-lim chemostat, doubling time 6 h
# [8] = wild type E. coli NCM3722, growth: C-lim chemostat, doubling time 12 h
# [9] = wild type E. coli NCM3722, growth: N-lim chemostat, doubling time 6 h
# [10] = wild type E. coli NCM3722, growth: N-lim chemostat, doubling time 12 h
# [11] = wild type E. coli NCM3722, growth: P-lim chemostat, doubling time 6 h
# [12] = wild type E. coli NCM3722, growth: P-lim chemostat, doubling time 12 h
Sequence,total protein half-life in vivo [1],total protein half-life in vivo [2],total protein half-life in vivo [3],total protein half-life in vivo [4],total protein half-life in vivo [5],total protein half-life in vivo [6],total protein half-life in vivo [7],total protein half-life in vivo [8],total protein half-life in vivo [9],total protein half-life in vivo [10],total protein half-life in vivo [11],total protein half-life in vivo [12]
MHWQTHTVFNQPIPLNNSNLYLSDGALCEAVTREGAGWDSDFLASIGQQLGTAESLELGRLANVNPPELLRYDAQGRRLDDVRFHPAWHLLMQALCTNRVHNLAWEEDARSGAFVARAARFMLHAQVEAGSLCPITMTFAATPLLLQMLPAPFQDWTTPLLSDRYDSHLLPGGQKRGLLIGMGMTEKQGGSDVMSNTTRAERLEDGSYRLVGHKWFFSVPQSDAHLVLAQTAGGLSCFFVPRFLPDGQRNAIRLERLKDKLGNRSNASCEVEFQDAIGWLLGLEGEGIRLILKMGGMTRFDCALGSHAMMRRAFSLAIYHAHQRHVFGNPLIQQPLMRHVLSRMALQLEGQTALLFRLARAWDRRADAKEALWARLFTPAAKFVICKRGMPFVAEAMEVLGGIGYCEESELPRLYREMPVNSIWEGSGNIMCLDVLRVLNKQAGVYDLLSEAFVEVKGQDRYFDRAVRRLQQQLRKPAEELGREITHQLFLLGCGAQMLKYASPPMAQAWCQVMLDTRGGVRLSEQIQNDLLLRATGGVCV,4.81 ± 0.12 h,4.91 ± 0.18 h,5.583 ± 0.035 h,4.72 ± 0.15 h,5.28 ± 0.11 h,3.296 ± 0.026 h,5.91 ± 0.25 h,11.3 ± 0.59 h,5.18 ± 0.13 h,11.5 ± 0.84 h,6.51 ± 0.25 h,11.5 ± 0.058 h
MTELPIDENTPRILIVEDEPKLGQLLIDYLRAASYAPTLISHGDQVLPYVRQTPPDLILLDLMLPGTDGLTLCREIRRFSDIPIVMVTAKIEEIDRLLGLEIGADDYICKPYSPREVVARVKTILRRCKPQRELQQQDAESPLIIDEGRFQASWRGKMLDLTPAEFRLLKTLSHEPGKVFSREQLLNHLYDDYRVVTDRTIDSHIKNLRRKLESLDAEQSFIRAVYGVGYRWEADACRIV,4.22 ± 0.48 h,4.1 ± 0.35 h,4.1 ± 0.073 h,4.58 ± 0.1 h,4.01 ± 0.14 h,2.89 ± 0.092 h,5.54 ± 0.16 h,11.7 ± 2.5 h,4.05 ± 0.21 h,6.62 ± 0.32 h,5.58 ± 0.26 h,13.5 ± 0.37 h
MLDIDKSTVDFLVTENMVQEVEKVLSHDVPLVHAIVEEMVKRDIDRIYFVACGSPLNAAQTAKHLADRFSDLQVYAISGWEFCDNTPYRLDDRCAVIGVSDYGKTEEVIKALELGRACGALTAAFTKRADSPITSAAEFSIDYQADCIWEIHLLLCYSVVLEMITRLAPNAEIGKIKNDLKQLPNALGHLVRTWEEKGRQLGELASQWPMIYTVAAGPLRPLGYKEGIVTLMEFTWTHGCVIESGEFRHGPLEIVEPGVPFLFLLGNDESRHTTERAINFVKQRTDNVIVIDYAEISQGLHPWLAPFLMFVPMEWLCYYLSIYKDHNPDERRYYGGLVEY [P0AC00],–,–,–,–,–,–,2.37 ± 0.41 h,2.71 h,–,–,–,–
MLGKYKAVLALLLLIILVPLTLLMTLGLWVPTLAGIWLPLGTRIALDESPRITRKGLIIPDLRYLVGDCQLAHITNASLSHPSRWLLNVGTVELDSACLAKLPQTEQSPAAPKTLAQWQAMLPNTWINIDKLIFSPWQEWQGKLSLALTSDIQQLRYQGEKVKFQGQLKGQQLTVSELDVVAFENQPPVKLVGEFAMPLVPDGLPVSGHATATLNLPQEPSLVDAELDWQENSGQLIVLARDNGDPLLDLPWQITRQQLTVSDGRWSWPYAGFPLSGRLGVKVDNWQAGLENALVSGRLSVLTQGQAGKGNAVLNFGPGKLSMDNSQLPLQLTGEAKQADLILYARLPAQLSGSLSDPTLTFEPGALLRSKGRVIDSLDIDEIRWPLAGVKVTQRGVDGRLQAILQAHENELGDFVLHMDGLANDFLPDAGRWQWRYWGKGSFTPMNATWDVAGKGEWHDSTITLTDLSTGFDQLQYGTMTVEKPRLILDKPIVWVRDAQHPSFSGALSLDAGQTLFTGGSVLPPSTLKFSVDGRDPTYFLFKGDLHAGEIGPVRVNGRWDGIRLRGNAWWPKQSLTVFQPLVPPDWKMNLRDGELYAQVAFSAAPEQGFRAGGHGVLKGGSAWMPDNQVNGVDFVLPFRFADGAWHLGTRGPVTLRIAEVINLVTAKNITADLQGRYPWTEEEPLLLTDVSVDVLGGNVLMKQLRMPQHDPALLRLNNLSSSELVSAVNPKQFAMSGAFSGALPLWLNNEKWIVKDGWLANSGPMTLRLDKDTADAVVKDNMTAGSAINWLRYMEISRSSTKINLDNLGLLTMQANITGTSRVDGKSGTVNLNYHHEENIFTLWRSLRFGDNLQAWLEQNARLPGNDCPQGKECEEKQ,–,5.985 ± 0.043 h,6.03 ± 0.13 h,6.22 ± 0.2 h,5.57 ± 0.078 h,3.236 ± 0.032 h,6.2 ± 0.12 h,10.8 ± 0.14 h,6 ± 0.47 h,12.3 ± 0.45 h,6.06 ± 0.32 h,12.17 ± 0.039 h
MFNRPNRNDVDDGVQDIQNDVNQLADSLESVLKSWGSDAKGEAEAARSKAQALLKETRARMHGRTRVQQAARDAVGCADSFVRERPWCSVGTAAAVGIFIGALLSMRKS [P0ADQ7],5.92 ± 0.068 h,–,7.51 ± 0.67 h,–,4.83 ± 0.087 h,2.37 ± 0.46 h,5.79 ± 0.34 h,9.97 ± 1.7 h,5.55 ± 0.094 h,11.3 ± 1.4 h,5.17 ± 0.21 h,10.8 ± 0.18 h
MNIFDHYRQRYEAAKDEEFTLQEFLTTCRQDRSAYANAAERLLMAIGEPVMVDTAQEPRLSRLFSNRVIARYPAFEEFYGMEDAIEQIVSYLKHAAQGLEEKKQILYLLGPVGGGKSSLAERLKSLMQLVPIYVLSANGERSPVNDHPFCLFNPQEDAQILEKEYGIPRRYLGTIMSPWAAKRLHEFGGDITKFRVVKVWPSILQQIAIAKTEPGDENNQDISALVGKVDIRKLEHYAQNDPDAYGYSGALCRANQGIMEFVEMFKAPIKVLHPLLTATQEGNYNGTEGISALPFNGIILAHSNESEWVTFRNNKNNEAFLDRVYIVKVPYCLRISEEIKIYEKLLNHSELTHAPCAPGTLETLSRFSILSRLKEPENSSIYSKMRVYDGESLKDTDPKAKSYQEYRDYAGVDEGMNGLSTRFAFKILSRVFNFDHVEVAANPVHLFYVLEQQIEREQFPQEQAERYLEFLKGYLIPKYAEFIGKEIQTAYLESYSEYGQNIFDRYVTYADFWIQDQEYRDPDTGQLFDRESLNAELEKIEKPAGISNPKDFRNEIVNFVLRARANNSGRNPNWTSYEKLRTVIEKKMFSNTEELLPVISFNAKTSTDEQKKHDDFVDRMMEKGYTRKQVRLLCEWYLRVRKSS [P0ACY3],3.5 ± 0.94 h,2.691 ± 0.0021 h,2.49 ± 0.037 h,2.38 ± 0.24 h,2.24 ± 0.06 h,2.76 ± 0.21 h,3.41 ± 0.25 h,4.77 ± 0.46 h,2.48 ± 0.11 h,3.09 ± 0.1 h,4.703 ± 0.016 h,7.66 ± 0.77 h
